Publication PMC4755285 (Journal of biomolecular screening, 2015)
Read-outs that look alike come from different tables or passages of the source. Each block holds one molecule with its values, some of them ahead of it. Ends that are not written are not given here.

Assays:
Test in all cases: fluorescence polarisation
[1] = biological target: FITC labeled HCN3 peptide (C-terminal 11 amino acids of HCN3)
[2] = biological target: FITC labeled HCN1 peptide (C-terminal 11 amino acids of HCN1)
[3] = biological target: FITC labeled HCN2 peptide (C-terminal 11 amino acids of HCN2)
[4] = biological target: FITC labeled HCN4 peptide (C-terminal 11 amino acids of HCN4)
[5] = biological target: T1, His tagged full length TRIP8b (1b-2) isoform
T1 chain: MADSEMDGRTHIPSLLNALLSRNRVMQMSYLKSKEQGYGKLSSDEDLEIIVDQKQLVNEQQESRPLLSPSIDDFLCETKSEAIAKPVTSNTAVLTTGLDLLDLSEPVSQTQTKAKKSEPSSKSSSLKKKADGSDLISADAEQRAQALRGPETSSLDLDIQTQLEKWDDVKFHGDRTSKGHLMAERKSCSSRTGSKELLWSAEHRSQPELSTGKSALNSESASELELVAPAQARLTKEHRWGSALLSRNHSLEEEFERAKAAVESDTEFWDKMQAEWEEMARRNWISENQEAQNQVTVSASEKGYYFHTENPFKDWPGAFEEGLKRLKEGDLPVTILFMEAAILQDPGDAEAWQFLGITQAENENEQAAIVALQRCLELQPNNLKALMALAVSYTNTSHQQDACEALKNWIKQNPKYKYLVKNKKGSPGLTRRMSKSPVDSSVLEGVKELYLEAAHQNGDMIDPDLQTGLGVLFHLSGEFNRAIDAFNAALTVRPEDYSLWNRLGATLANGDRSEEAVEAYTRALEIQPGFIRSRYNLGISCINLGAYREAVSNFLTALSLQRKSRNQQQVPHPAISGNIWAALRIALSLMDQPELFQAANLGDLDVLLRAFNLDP

TRIP8b(241-602) [6] = biological target: TRIP8b(241-602)
TRIP8b(241-602) [7] = biological target: TRIP8b(241-602); remark: listed apart in the source
TRIP8b(241-602) [8] = biological target: TRIP8b(241-602); remark: listed apart in the source
TRIP8b(241-602) [9] = biological target: TRIP8b(241-602); remark: listed apart in the source

Molecule: DAEKPRFASNL (also: FITC label, position not given here) [FITC labeled HCN1 peptide (C-terminal 11 amino acids of HCN1)]
Kd [5]: 1030 ± 20 nM
Kd (TRIP8b(241-602) [6]): 800 nM

Molecule: DSARSRLSSNL [unlabeled HCN2 peptide]
IC50 (TRIP8b(241-602) [6]): 760 nM

Molecule: EPVRSKLPSNL [unlabeled HCN4 peptide]
IC50 (TRIP8b(241-602) [6]): 1930 nM

Next, values leading:

Kd [1]: 10200 nM
Kd [2]: 1230 nM
fluorescence polarisation without competitor (mP) [2]: 224 mP
Kd [3]: 910 nM
Kd [4]: 810 nM
Molecule: TRIP8b(241-602) (domain or fragment)

IC50 (TRIP8b(241-602) [7]): 890 nM
IC50 (TRIP8b(241-602) [8]): 1770 nM
IC50 (TRIP8b(241-602) [9]): 1600 nM
IC50 (TRIP8b(241-602) [6]): 700 nM
Molecule: DAEKPRFASNL [unlabeled HCN1 peptide]
